From patent US20160145328A1 (published 2016)
Like-named read-outs stand apart in the source and are kept apart here.

Experiments:
Assay in all cases: Heat/Cool phage ELISA: phage-displayed VH, 80 C 10 min then 4 C 10 min, captured on coated protein A; signal as % of untreated sample
[1] = biological target: T1, protein A (UniProt P38507 37-477)
T1 construct: also called Protein A superantigen
Method: (§1) The aggregation-resistance of clones was analyzed by measuring retention of signal after heat incubation in a phage ELISA format (McCafferty et al., 1990; Jespers et al., 2004). Wells of a Nunc Maxisorp Immuno-plate were coated overnight with protein A at a concentration of about 5 μg/ml in phosphate-buffered saline (PBS). The plate was washed once with PBS and blocked with about 4% (w/v) milk powder diluted in PBS (MPBS). Single colonies were picked from agar plates and grown overnight in 2×TY medium (containing about 16 g/L tryptone; about 10 g/L yeast extract; about 5 g/L NaCl, pH 7.0) supplemented with about 15 μg/ml tetracycline shaking at about 30° C. Cells were removed by centrifugation and phages were biotinylated directly in the culture supernatant by adding biotin-PEO₄-N-hydroxysuccinimide (Pierce; about 50 μM final concentration). For heat selection, supernatant was first incubated at about 80° C. for about 10 min and then at about 4° C. for about 10 min. Supernatant was added to the blocked ELISA wells. After three washes with PBS, bound phage particles were detected using an Extravidin-HRP conjugate (Sigma) and 3,3′,5,5′-tetramethylbenzidine (TMB) substrate. Absorbance was calculated by subtracting measurements at 450 and 650 nm.
Single amino acid changes in the CDR1 region of the DP47 VH domain, and combinations thereof, were constructed and tested for aggregation-resistance, as detailed above (see the Materials and Methods section). […] Correctly folded VH were captured by protein A ELISA and the absorbance signal of the treated sample was calculated as a percentage of the untreated sample.

[2] = biological target: T1, protein A; remark: listed apart in the source
Method: as §1
To identify additional residues in CDR1 that confer aggregation-resistance on VH, surface-exposed residues of DP47 between positions 26 to 35 (numbering according to the Kabat numbering system) were substituted for aspartic acid (D) or glutamic acid (E). Framework residues at positions 39 and 40 were also substituted for aspartic acid (D) or glutamic acid (E). […] Correctly folded VH were captured by protein A ELISA and the absorbance signal of the treated sample was calculated as a percentage of the untreated sample.

[3] = biological target: T1, protein A; remark: listed apart in the source
Method: as §1
VH domains were produced comprising negatively charged amino acids at positions 28 and/or 35 in CDR1 of DP47 and at least one other position, as set out in Table 7. Aggregation-resistance of the VH domains was assessed using the “Heat/Cool” assay as described in Example 1.2.

Binder | Retained binding to protein A (%) [2] [%] | Retained binding to protein A (%) [3] [%] | also measured
DP47 VH A33D (other, name in Kabat numbering) VH: QVQLLESGGGLVQPGGSLRLSCAASGFTFSSYDMSWVRQAPGKGLEWVSAISGSGGSTYYADSVKGRFTISRDNSKNTLYLQMNSLRAEDTAVYYCAKSYGAFDYWGQGTLVTVSS | 10 |  | Retained binding to protein A [1]: 26%
DP47 VH A33E (other, name in Kabat numbering) VH: QVQLLESGGGLVQPGGSLRLSCAASGFTFSSYEMSWVRQAPGKGLEWVSAISGSGGSTYYADSVKGRFTISRDNSKNTLYLQMNSLRAEDTAVYYCAKSYGAFDYWGQGTLVTVSS | 2 |  | 
DP47 VH A40D (other, name in Kabat numbering) VH: QVQLLESGGGLVQPGGSLRLSCAASGFTFSSYAMSWVRQDPGKGLEWVSAISGSGGSTYYADSVKGRFTISRDNSKNTLYLQMNSLRAEDTAVYYCAKSYGAFDYWGQGTLVTVSS | 2.8 |  | 
DP47 VH A40E (other, name in Kabat numbering) VH: QVQLLESGGGLVQPGGSLRLSCAASGFTFSSYAMSWVRQEPGKGLEWVSAISGSGGSTYYADSVKGRFTISRDNSKNTLYLQMNSLRAEDTAVYYCAKSYGAFDYWGQGTLVTVSS | 1.9 |  | 
DP47 VH G26D (other, name in Kabat numbering) VH: QVQLLESGGGLVQPGGSLRLSCAASDFTFSSYAMSWVRQAPGKGLEWVSAISGSGGSTYYADSVKGRFTISRDNSKNTLYLQMNSLRAEDTAVYYCAKSYGAFDYWGQGTLVTVSS | 6.1 |  | 
DP47 VH G26E (other, name in Kabat numbering) VH: QVQLLESGGGLVQPGGSLRLSCAASEFTFSSYAMSWVRQAPGKGLEWVSAISGSGGSTYYADSVKGRFTISRDNSKNTLYLQMNSLRAEDTAVYYCAKSYGAFDYWGQGTLVTVSS | 1.8 |  | 
DP47 VH Q39D (other, name in Kabat numbering) VH: QVQLLESGGGLVQPGGSLRLSCAASGFTFSSYAMSWVRDAPGKGLEWVSAISGSGGSTYYADSVKGRFTISRDNSKNTLYLQMNSLRAEDTAVYYCAKSYGAFDYWGQGTLVTVSS | 3.7 |  | 
DP47 VH Q39E (other, name in Kabat numbering) VH: QVQLLESGGGLVQPGGSLRLSCAASGFTFSSYAMSWVREAPGKGLEWVSAISGSGGSTYYADSVKGRFTISRDNSKNTLYLQMNSLRAEDTAVYYCAKSYGAFDYWGQGTLVTVSS | 2.5 |  | 
DP47 VH S30D (other, name in Kabat numbering) VH: QVQLLESGGGLVQPGGSLRLSCAASGFTFDSYAMSWVRQAPGKGLEWVSAISGSGGSTYYADSVKGRFTISRDNSKNTLYLQMNSLRAEDTAVYYCAKSYGAFDYWGQGTLVTVSS | 21.8 |  | 
DP47 VH S30E (other, name in Kabat numbering) VH: QVQLLESGGGLVQPGGSLRLSCAASGFTFESYAMSWVRQAPGKGLEWVSAISGSGGSTYYADSVKGRFTISRDNSKNTLYLQMNSLRAEDTAVYYCAKSYGAFDYWGQGTLVTVSS | 2.1 |  | 
DP47 VH S31E (other, name in Kabat numbering) VH: QVQLLESGGGLVQPGGSLRLSCAASGFTFSEYAMSWVRQAPGKGLEWVSAISGSGGSTYYADSVKGRFTISRDNSKNTLYLQMNSLRAEDTAVYYCAKSYGAFDYWGQGTLVTVSS | 6.1 |  | 
DP47 VH S35D (other, name in Kabat numbering) VH: QVQLLESGGGLVQPGGSLRLSCAASGFTFSSYAMDWVRQAPGKGLEWVSAISGSGGSTYYADSVKGRFTISRDNSKNTLYLQMNSLRAEDTAVYYCAKSYGAFDYWGQGTLVTVSS | 12.8 |  | 
DP47 VH S35D + A33D (other, name in Kabat numbering) VH: QVQLLESGGGLVQPGGSLRLSCAASGFTFSSYDMDWVRQAPGKGLEWVSAISGSGGSTYYADSVKGRFTISRDNSKNTLYLQMNSLRAEDTAVYYCAKSYGAFDYWGQGTLVTVSS |  | 40.3 | 
DP47 VH S35D + S30D (other, name in Kabat numbering) VH: QVQLLESGGGLVQPGGSLRLSCAASGFTFDSYAMDWVRQAPGKGLEWVSAISGSGGSTYYADSVKGRFTISRDNSKNTLYLQMNSLRAEDTAVYYCAKSYGAFDYWGQGTLVTVSS |  | 43.5 | 
DP47 VH S35D + S31D (other, name in Kabat numbering) VH: QVQLLESGGGLVQPGGSLRLSCAASGFTFSDYAMDWVRQAPGKGLEWVSAISGSGGSTYYADSVKGRFTISRDNSKNTLYLQMNSLRAEDTAVYYCAKSYGAFDYWGQGTLVTVSS |  | 48.3 | 
DP47 VH S35D + Y32D (other, name in Kabat numbering) VH: QVQLLESGGGLVQPGGSLRLSCAASGFTFSSDAMDWVRQAPGKGLEWVSAISGSGGSTYYADSVKGRFTISRDNSKNTLYLQMNSLRAEDTAVYYCAKSYGAFDYWGQGTLVTVSS |  | 61 | 
DP47 VH S35E (other, name in Kabat numbering) VH: QVQLLESGGGLVQPGGSLRLSCAASGFTFSSYAMEWVRQAPGKGLEWVSAISGSGGSTYYADSVKGRFTISRDNSKNTLYLQMNSLRAEDTAVYYCAKSYGAFDYWGQGTLVTVSS | 4.5 |  | 
DP47 VH S35G (other, name in Kabat numbering) VH: QVQLLESGGGLVQPGGSLRLSCAASGFTFSSYAMGWVRQAPGKGLEWVSAISGSGGSTYYADSVKGRFTISRDNSKNTLYLQMNSLRAEDTAVYYCAKSYGAFDYWGQGTLVTVSS |  |  | Retained binding to protein A [1]: 4%
DP47 VH T28D (other, name in Kabat numbering) VH: QVQLLESGGGLVQPGGSLRLSCAASGFDFSSYAMSWVRQAPGKGLEWVSAISGSGGSTYYADSVKGRFTISRDNSKNTLYLQMNSLRAEDTAVYYCAKSYGAFDYWGQGTLVTVSS | 25.1 |  | 
DP47 VH T28D + A33D (other, name in Kabat numbering) VH: QVQLLESGGGLVQPGGSLRLSCAASGFDFSSYDMSWVRQAPGKGLEWVSAISGSGGSTYYADSVKGRFTISRDNSKNTLYLQMNSLRAEDTAVYYCAKSYGAFDYWGQGTLVTVSS |  | 62 | 
DP47 VH T28D + S30D (other, name in Kabat numbering) VH: QVQLLESGGGLVQPGGSLRLSCAASGFDFDSYAMSWVRQAPGKGLEWVSAISGSGGSTYYADSVKGRFTISRDNSKNTLYLQMNSLRAEDTAVYYCAKSYGAFDYWGQGTLVTVSS |  | 39.4 | 
DP47 VH T28D + S31D (other, name in Kabat numbering) VH: QVQLLESGGGLVQPGGSLRLSCAASGFDFSDYAMSWVRQAPGKGLEWVSAISGSGGSTYYADSVKGRFTISRDNSKNTLYLQMNSLRAEDTAVYYCAKSYGAFDYWGQGTLVTVSS |  | 44.8 | 
DP47 VH T28D + S35D (other, name in Kabat numbering) VH: QVQLLESGGGLVQPGGSLRLSCAASGFDFSSYAMDWVRQAPGKGLEWVSAISGSGGSTYYADSVKGRFTISRDNSKNTLYLQMNSLRAEDTAVYYCAKSYGAFDYWGQGTLVTVSS |  | 45.8 | 
DP47 VH T28D + Y32D (other, name in Kabat numbering) VH: QVQLLESGGGLVQPGGSLRLSCAASGFDFSSDAMSWVRQAPGKGLEWVSAISGSGGSTYYADSVKGRFTISRDNSKNTLYLQMNSLRAEDTAVYYCAKSYGAFDYWGQGTLVTVSS |  | 64.7 | 
DP47 VH T28E (other, name in Kabat numbering) VH: QVQLLESGGGLVQPGGSLRLSCAASGFEFSSYAMSWVRQAPGKGLEWVSAISGSGGSTYYADSVKGRFTISRDNSKNTLYLQMNSLRAEDTAVYYCAKSYGAFDYWGQGTLVTVSS | 6.5 |  | 
DP47 VH T28R (other, name in Kabat numbering) VH: QVQLLESGGGLVQPGGSLRLSCAASGFRFSSYAMSWVRQAPGKGLEWVSAISGSGGSTYYADSVKGRFTISRDNSKNTLYLQMNSLRAEDTAVYYCAKSYGAFDYWGQGTLVTVSS |  |  | Retained binding to protein A [1]: 2%
DP47 VH Y32D (other, name in Kabat numbering) VH: QVQLLESGGGLVQPGGSLRLSCAASGFTFSSDAMSWVRQAPGKGLEWVSAISGSGGSTYYADSVKGRFTISRDNSKNTLYLQMNSLRAEDTAVYYCAKSYGAFDYWGQGTLVTVSS | 41.8 |  | 
